Measurements as given in patent US20230183322A1 (published 2023).

Target: spike protein (Spike, S protein) of SARS-CoV-2 (UniProt P0DTC2 14-1273)
Experiment: SPR

B1: antigen-binding unit ABU-174 (antibody, V domains shown)
VH: QVQLQQWGAGLLKPSETLSLTCAVYGGSFSDYYWNWIRRPPGKGLEWIGEITHSGSTNYNPSLKSRVTISVDTSKNQFSLKLSSVTAADTAVYYCARGQGYGRVLLWFGEWGQGTLVTVSS
VL: EIVLTQSPATLSLSPGERATLSCRASQSVSTYLAWYQQKPGQAPRLLIYDASNRATGIPARFSGSGSGTDFTLTISSLEPEDFAVYYCQQRSNWITFGQGTRLEIK
Q: Which Kd does the source give for B1 here?
A: The Kd was 0.285 nM.
